Laboratory results from publication PMC10793706, “Genetically engineered IgG1 and nanobody oligomers acquire strong intrinsic CD40 agonism” (Bioengineered, 2024).

B1: ADC-1013-IgG1 (antibody, V domains shown)
VH: EVQLLESGGGLVQPGGSLRLSCAASGFTFSTYGMHWVRQAPGKGLEWLSYISGGSSYIFYADSVRGRFTISRDNSENALYLQMNSLRAEDTAVYYCARILRGGSGMDLWGQGTLVTVSS
VL: QSVLTQPPSASGTPGQRVTISCTGSSSNIGAGYNVYWYQQLPGTAPKLLIYGNINRPSGVPDRFSGSKSGTSASLAISGLRSEDEADYYCAAWDKSISGLVFGGGTKLTVL
notes: constant region of the IgG1 heavy chain; IgG1; also called Mitazalimab; source: HEK293T, transfected, cell culture supernatant
B2: G28.5-IgG1 (antibody, V domains shown)
VH: DIQLQQSGPGLVKPSQSLSLTCSVTGYSITTNYNWNWIRQFPGNKLEWMGYIRYDGTSEYTPSLKNRVSITRDTSMNQFFLRLTSVTPEDTATYYCARLDYWGQGTLVTVSS
VL: DIVMTQNPLSLPVSLGDEASISCRSSQSLENSNGNTFLNWFFQKPGQSPQLLIYRVSNRFSGVPDRFSGSGSGTDFTLKISRVEAEDLGVYFCLQVTHVPYTFGGGTTLEIK
notes: VH of G28.5; constant region of the IgG1 heavy chain; IgG1; source: HEK293T, transfected, cell culture supernatant
B3: APX005M-IgG1 (antibody, V domains shown)
VH: QSLEESGGDLVKPGASLTLTCTASGFSFSSTYVCWVRQAPGKGLEWIACIYTGDGTNYSASWAKGRFTISKPSSTTVTLQMTSLTPADTATYFCARPDITYGFAINFWGPGTLVTVSS
VL: DIVMTQTPSSASEPVGGTVTIKCQASQSISSRLAWYQQKPGQPPKLLIYRASTLASGVPSRFKGSGSGTEFTLTISDLECADAATYYCQCTGYGISWPIGGGTEVVVK
notes: VH of APX005M; constant region of the IgG1 heavy chain; IgG1; also called Sotigalimab; anti-CD40(APX); source: HEK293T, transfected, cell culture supernatant

How the values were obtained:
[1] = biological target: human CD40 expressed on HT1080-CD40 transfectants (human) (UniProt P25942)
[2] = biological target: T1, CD40-GpL, the CD40 ectodomain with a C-terminal Gaussia princeps luciferase (GpL) reporter domain (Homo sapiens, UniProt P25942); assay: plate binding assay with Gaussia luciferase (GpL) fusion proteins; plates coated with 1 µg/ml protein G, loaded with anti-CD40 antibodies (1 µg/ml, in medium); GpL-linked CD40 ectodomain and its deletion mutants added for 1 hour at 37°C; TNFR2(ed)-GpL values subtracted as unspecific binding; settings: partners not purified
T1 construct: extracellular domain of CD40 with its cysteine-rich domains (CRDs); also called CD40(ed)-GpL; source: HEK293T, transfected, cell culture supernatant; not shown: Gaussia princeps luciferase (GpL), C-terminal, kept
T1 sequence (P25942 21-193): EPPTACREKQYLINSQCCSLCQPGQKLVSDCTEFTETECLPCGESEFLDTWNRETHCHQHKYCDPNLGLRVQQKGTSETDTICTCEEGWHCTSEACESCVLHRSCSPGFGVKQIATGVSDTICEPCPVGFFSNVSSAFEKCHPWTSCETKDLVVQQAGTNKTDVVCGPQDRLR

human CD40 expressed on HT1080-CD40 transfectants (human), sequence (P25942 21-277): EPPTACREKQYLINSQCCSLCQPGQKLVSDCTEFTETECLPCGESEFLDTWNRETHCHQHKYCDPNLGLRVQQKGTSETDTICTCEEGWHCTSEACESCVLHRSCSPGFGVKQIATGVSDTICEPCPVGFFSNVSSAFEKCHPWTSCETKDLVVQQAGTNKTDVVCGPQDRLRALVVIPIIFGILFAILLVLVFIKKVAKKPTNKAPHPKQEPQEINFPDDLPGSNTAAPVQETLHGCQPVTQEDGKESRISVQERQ

p100 processing and TRAF1 induction (western blot) in U2OS cells; concentration from which the response starts [1]	binding result [2]	Molecule
< 100 ng/mL		APX005M-IgG1 (N297A-RGY) (antibody)
	binds	B1
	binds	B2
	binds	B3
